Results taken from patent US20260224661A1 (Stanford University, published 2026).

B1: EF-hand Ca2+-binding domain of SPARCL1 (ligand)
chain: ACTDFEVAQFPLRMRDWLKNILMQLYEPNPKHGGYLNEKQRSKVKKIYLDEKRLLAGDHPIELLLRDFKKNYHMYVYPVHWQFNELDQHPADRILTHSELAPLRASLVPMEHCITRFFEECDPNKDKHITLKEWGHCFGIKEEDIDENLLF
notes: also called EF-hand domain; EC domain
B2: C-terminal SPARCL1-C domain of SPARCL1 (ligand)
chain: PNAEPSDEGNSREHSAGSCTNFQCKRGHICKTDPQGKPHCVCQDPETCPPAKILDQACGTDNQTYASSCHLFATKCRLEGTKKGHQLQLDYFGACKSIPACTDFEVAQFPLRMRDWLKNILMQLYEPNPKHGGYLNEKQRSKVKKIYLDEKRLLAGDHPIELLLRDFKKNYHMYVYPVHWQFNELDQHPADRILTHSELAPLRASLVPMEHCITRFFEECDPNKDKHITLKEWGHCFGIKEEDIDENLLF
B3: full-length SPARCL1 (ligand)
chain: IPTSTRFLSDHSNPTTATLVTPEDATVPIAGVEATADIENHPNDKAEKPSALNSEEETHEQSTEQDKTYSFEVDLKDEEDGDGDLSVDPTEGTLTLDLQEGTSEPQQKSLPENGDFPATVSTSYVDPNQRANITKGKESQEQPVSDSHQQPNESSKQTQDLKAEESQTQDPDIPNEEEEEEEDEEEEEEEEPEDIGAPSDNQEEGKEPLEEQPTSKWEGNREQSDDTLEESSQPTQISKTEKHQSEQGNQGQESDSEAEGEDKAAGSKEHIPHTEQQDQEGKAGLEAIGNQKDTDEKAVSTEPTDAAVVPRSHGGAGDNGGGDDSKHGAGDDYFIPSQEFLEAERMHSLSYYLKYGGGEETTTGESENRREAADNQEAKKAESSPNAEPSDEGNSREHSAGSCTNFQCKRGHICKTDPQGKPHCVCQDPETCPPAKILDQACGTDNQTYASSCHLFATKCRLEGTKKGHQLQLDYFGACKSIPACTDFEVAQFPLRMRDWLKNILMQLYEPNPKHGGYLNEKQRSKVKKIYLDEKRLLAGDHPIELLLRDFKKNYHMYVYPVHWQFNELDQHPADRILTHSELAPLRASLVPMEHCITRFFEECDPNKDKHITLKEWGHCFGIKEEDIDENLLF

Key:
[1] = molecular target: T1, Tenm2 expressed in HEK293 cells (human, UniProt Q9NT68 1-2774); experiment: surface-binding assay on HEK293 cells expressing Tenm2 (FIG. 4E)
T1 construct: also called teneurin-2

[2] = molecular target: T2, Tenm3 expressed in HEK293 cells (mouse, UniProt Q9WTS6 1-2715); experiment: surface-binding assay on HEK293 cells expressing Tenm3 (FIG. 4E)
T2 construct: also called teneurin-3

[3] = molecular target: T3, Tenm1 expressed in HEK293 cells (human, UniProt Q9UKZ4 1-2725); experiment: surface-binding assay on HEK293 cells expressing Tenm1 (FIG. 4E)
T3 construct: also called teneurin-1

[4] = molecular target: T4, Tenm4 expressed in HEK293 cells (mouse, UniProt Q3UHK6 1-2771); experiment: surface-binding assay on HEK293 cells expressing Tenm4 (FIG. 4E)
T4 construct: also called teneurin-4

[5] = molecular target: Tenm1 (as used in the affinity determinations of FIG. 2E-F) (UniProt Q9UKZ4 1-2725); experiment: surface binding saturation curve
Sequence of Tenm1 (as used in the affinity determinations of FIG. 2E-F) (Q9UKZ4 other isoform, or with tags, fused parts or gaps): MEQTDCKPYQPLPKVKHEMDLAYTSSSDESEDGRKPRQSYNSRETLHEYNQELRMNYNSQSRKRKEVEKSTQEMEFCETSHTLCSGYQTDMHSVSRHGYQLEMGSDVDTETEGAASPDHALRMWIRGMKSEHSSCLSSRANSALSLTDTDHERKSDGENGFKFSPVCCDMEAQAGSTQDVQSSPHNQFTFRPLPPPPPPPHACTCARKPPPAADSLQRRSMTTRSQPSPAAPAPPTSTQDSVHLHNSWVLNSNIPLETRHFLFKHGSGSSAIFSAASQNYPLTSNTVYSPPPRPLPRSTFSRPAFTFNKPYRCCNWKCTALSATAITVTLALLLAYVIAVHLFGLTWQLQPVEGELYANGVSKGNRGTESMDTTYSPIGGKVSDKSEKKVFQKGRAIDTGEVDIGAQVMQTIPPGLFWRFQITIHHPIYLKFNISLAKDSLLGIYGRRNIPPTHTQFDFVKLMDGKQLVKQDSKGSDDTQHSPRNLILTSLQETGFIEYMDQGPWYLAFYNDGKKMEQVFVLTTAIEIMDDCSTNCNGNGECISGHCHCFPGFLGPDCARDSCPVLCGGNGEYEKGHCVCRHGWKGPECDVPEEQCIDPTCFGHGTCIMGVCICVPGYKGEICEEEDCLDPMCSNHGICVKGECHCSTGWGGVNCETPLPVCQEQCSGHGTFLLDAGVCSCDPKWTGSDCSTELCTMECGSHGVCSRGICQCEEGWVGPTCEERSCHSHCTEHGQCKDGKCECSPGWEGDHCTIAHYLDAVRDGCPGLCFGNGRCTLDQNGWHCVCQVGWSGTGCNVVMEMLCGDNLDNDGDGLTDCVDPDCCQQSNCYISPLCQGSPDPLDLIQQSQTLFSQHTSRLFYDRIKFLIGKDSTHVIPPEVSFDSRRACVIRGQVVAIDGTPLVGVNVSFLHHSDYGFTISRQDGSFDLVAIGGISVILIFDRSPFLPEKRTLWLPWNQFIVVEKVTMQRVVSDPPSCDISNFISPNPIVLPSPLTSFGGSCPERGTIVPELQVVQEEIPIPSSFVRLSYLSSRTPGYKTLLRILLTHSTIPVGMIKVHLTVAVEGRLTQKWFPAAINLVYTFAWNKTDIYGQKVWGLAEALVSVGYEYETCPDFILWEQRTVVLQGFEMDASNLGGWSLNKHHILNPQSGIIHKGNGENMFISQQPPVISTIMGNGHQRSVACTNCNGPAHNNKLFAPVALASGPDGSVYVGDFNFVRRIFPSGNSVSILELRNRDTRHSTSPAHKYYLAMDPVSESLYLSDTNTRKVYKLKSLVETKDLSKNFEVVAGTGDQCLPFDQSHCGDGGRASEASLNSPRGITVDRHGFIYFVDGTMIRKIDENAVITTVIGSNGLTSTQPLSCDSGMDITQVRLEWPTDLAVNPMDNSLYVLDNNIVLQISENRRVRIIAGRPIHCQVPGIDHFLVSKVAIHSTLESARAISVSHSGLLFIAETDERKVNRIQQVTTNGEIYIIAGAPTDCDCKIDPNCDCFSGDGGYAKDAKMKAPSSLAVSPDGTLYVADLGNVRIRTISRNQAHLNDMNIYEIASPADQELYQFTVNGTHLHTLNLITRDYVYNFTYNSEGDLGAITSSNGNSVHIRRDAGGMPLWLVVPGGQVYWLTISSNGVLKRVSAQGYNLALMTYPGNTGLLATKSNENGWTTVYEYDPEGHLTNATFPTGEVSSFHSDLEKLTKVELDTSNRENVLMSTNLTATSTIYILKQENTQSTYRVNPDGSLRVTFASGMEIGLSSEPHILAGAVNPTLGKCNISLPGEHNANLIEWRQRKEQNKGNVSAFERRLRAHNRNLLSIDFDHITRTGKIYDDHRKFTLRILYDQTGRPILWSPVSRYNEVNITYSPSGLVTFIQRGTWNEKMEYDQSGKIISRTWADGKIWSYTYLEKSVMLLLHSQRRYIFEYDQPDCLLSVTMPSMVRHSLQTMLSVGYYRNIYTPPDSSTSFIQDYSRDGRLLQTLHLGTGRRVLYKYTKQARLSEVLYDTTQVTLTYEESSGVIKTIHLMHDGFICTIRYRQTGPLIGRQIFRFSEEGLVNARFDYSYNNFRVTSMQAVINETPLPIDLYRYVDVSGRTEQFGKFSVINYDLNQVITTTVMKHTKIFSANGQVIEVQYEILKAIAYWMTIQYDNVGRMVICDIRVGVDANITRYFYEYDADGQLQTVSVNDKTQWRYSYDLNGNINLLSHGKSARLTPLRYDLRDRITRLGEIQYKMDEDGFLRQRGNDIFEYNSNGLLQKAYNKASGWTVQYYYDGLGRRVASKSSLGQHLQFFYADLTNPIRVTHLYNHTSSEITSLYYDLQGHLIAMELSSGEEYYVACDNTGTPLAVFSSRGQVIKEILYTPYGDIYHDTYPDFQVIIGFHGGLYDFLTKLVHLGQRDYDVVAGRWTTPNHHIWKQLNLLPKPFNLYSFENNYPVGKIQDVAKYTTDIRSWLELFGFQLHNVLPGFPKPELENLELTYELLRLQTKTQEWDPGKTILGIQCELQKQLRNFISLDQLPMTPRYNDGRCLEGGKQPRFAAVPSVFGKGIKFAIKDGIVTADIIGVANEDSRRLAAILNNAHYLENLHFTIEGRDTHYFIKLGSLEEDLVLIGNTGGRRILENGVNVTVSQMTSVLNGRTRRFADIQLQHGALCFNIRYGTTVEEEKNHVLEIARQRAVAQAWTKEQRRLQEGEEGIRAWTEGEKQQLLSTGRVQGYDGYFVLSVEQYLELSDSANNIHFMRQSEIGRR

T3 sequence (Q9UKZ4 other isoform, or with tags, fused parts or gaps): as above

| Binder | binding result [1] | binding result [2] | binding result [3] | binding result [4] | Kd [5] [nM] |
| --- | --- | --- | --- | --- | --- |
| B1 | no binding | no binding | no binding | no binding |  |
| B2 |  |  |  |  | 88.2 |
| B3 |  |  |  |  | 73.2 |
